The target of the experiment is HLA-A2 molecules on the cell surface (total) (human). In words: flow cytometry on 501A melanoma cells, PE-conjugated BB7.2.

In patent US20100158927A1 one finds MFI data, which are given here for one substance.

As for anti-HLA-A2 mAb BB7.2 (antibody), the MFI was found to be 56.4 MFI.
